The record followed here is patent publication US20130224313A1 (CENTRO DE INGENIERIA GENETICA Y BIOTECNOLOGIA, published 2013).

In assay [1] the target is T1, COMMD1 fragment, amino acids 110-190 (clone pGBKL2 (110-190)) (human, UniProt Q8N668 110-190).
T1 construct: range 110-190; also called COMM domain; not shown: two-hybrid vector fusion partner; not described
As to the kind of experiment: yeast two-hybrid with deletion clones. On the procedure:
(§1) FIG. 1. The figure illustrates the physical interaction between the L2 peptide and COMMD1. This was carried out by the technique of two hybrids in yeast. As negative controls were used the mating of the yeast strain AH109 transformed with the empty vector (pGBKT7) and the fragments of COMMD1 transformed with the Y187 strain. For the identification of the interaction, mating of the strain AH109 transformed with vector carrying the sequence of L2 and each COMMD1 fragment transformed into strain Y187 was carried out. As a positive control, the PCL1 mating bearing the GAL4 transcription factor was used. As it can be noted, the interaction occurs with the plasmids carrying the complete sequence of the COMMD1 gene and the construction containing the amino acids 110-190 of the COMMD1 protein.
(§2) corresponding to the L2 peptide sequence: […] For cloning these sequences in the pGBKT7 NcoI-BamHI vector, sequences complementary to these sites were added at the ends of the oligonucleotides. The pGBKL2-1 recombinant plasmid, which carries the L2 peptide sequence was verified by restriction analysis and sequencing. The plasmid was transformed into the AH109 yeast strain by the lithium acetate method and grown in SD-Trp medium. It was verified that it could not be self-activated when grown on SD-Trp-His plates. […]

The target of assay [2] is T2, COMMD1 protein, amino acids 6-190 (two-hybrid clone L2-21) (human, UniProt Q8N668 6-190).
T2 construct: range 6-190; Prey clone found in the two-hybrid screen; also called MURR1; not shown: fusion partner of the human liver cDNA library (prey) vector in strain Y187; not described
T2 sequence (Q8N668 6-190): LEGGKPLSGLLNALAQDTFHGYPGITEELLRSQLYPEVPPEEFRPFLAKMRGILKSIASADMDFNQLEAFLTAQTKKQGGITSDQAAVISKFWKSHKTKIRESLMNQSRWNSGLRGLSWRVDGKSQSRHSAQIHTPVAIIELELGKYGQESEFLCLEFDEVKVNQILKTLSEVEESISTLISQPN
As to the kind of experiment: yeast two-hybrid screen of a human liver cDNA library, verified by mating. On the procedure: as §1, §2

T1 sequence (Q8N668 110-190): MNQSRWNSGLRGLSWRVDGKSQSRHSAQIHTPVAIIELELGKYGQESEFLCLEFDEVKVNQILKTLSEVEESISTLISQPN

B1: L2 peptide expressed from plasmid pGBKL2-1 (pGBKT7 vector) in yeast strain AH109 (peptide)
chain: HARIKPTFRRLKWKYKGKFW
notes: Two-hybrid bait; not shown: fusion partner encoded by the pGBKT7 two-hybrid bait vector
Consider B1, for which the binding result in assay [1] and in assay [2] was “binds” throughout.
